Patent publication US20060024698, “Method to protect DNA ends” (published 2006)

T1: DdrA (DR0423) (Deinococcus radiodurans R1, UniProt Q9RX92 SEQ:1-208)
T1 sequence: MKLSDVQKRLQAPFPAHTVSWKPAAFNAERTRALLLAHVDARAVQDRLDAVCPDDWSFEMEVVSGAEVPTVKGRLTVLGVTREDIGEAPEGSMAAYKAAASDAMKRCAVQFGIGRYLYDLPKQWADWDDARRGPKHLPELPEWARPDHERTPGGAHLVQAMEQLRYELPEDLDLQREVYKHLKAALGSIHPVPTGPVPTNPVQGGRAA

B1: hairpin with 3' extension (oligo A) (structured_DNA)
DNA: TTAACGACCGTCGACCTGCAGGTCGACGGTCGTTAACGTCTCTCAGATTGT
modifications: 3'-terminal ddA added

Key:
[1] = molecular target: T1, DdrA (DR0423); experiment: EMSA; 4 uM DdrA; not disrupted by 1000-2000 fold excess of 5'-extension oligo; conditions: tags: untagged, expressed in E. coli from pEAW298; chain copies: 8-10 subunit oligomer in solution by gel filtration (stated); label: 3'-32P ddATP; 18 bp hairpin with 16 nt 3' single-strand extension
Protocol: Four sets of EMSA assays are presented, with the gels and electrophoresis conditions carefully matched. DNA substrate concentrations are 0.7 nM in each case, reported as total molecules. In each set, the first three lanes have show the effects of the indicated concentration of DdrA protein. […] In set D, the sixth and seventh lanes are identical to the third lane (with 4 μM DdrA protein), except that they have been challenged with a 1000-fold or 2000-fold excess of unlabeled oligo with a 5′ extension, respectively. The unlabeled challenge oligo is the same as that used in reaction set C. (FIG. 7A) Single-strand oligonucleotides (51 nucleotides in length), labelled on the 5′ end. (FIG. 7B) 5′ end-labeled duplex DNA fragments (51 bp). (FIG. 7C) 5′-end-labelled oligonucleotide, with a self-complementary sequence leading to the formation of an 18 bp hairpin and a 15 nucleotide 5′ single strand extension. (FIG. 7D) 3′ end-labelled oligonucleotide, with a self-complementary sequence leading to the formation of an 18 bp hairpin and a 16 nucleotide 3′ single strand extension. The sequences of the single strand extensions in the oligos used in sets C and D are matched, except that an extra adenosine residue has been added to the oligo used in set D during the labelling process.

[2] = molecular target: T1, DdrA (DR0423); experiment: FP; KD,app; 1.0 nM DNA, 30 C, 30 min; conditions: tags: untagged, expressed in E. coli from pEAW298; chain copies: 8-10 subunit oligomer in solution by gel filtration (stated); label: 3' fluorescent tag
Protocol: FIG. 9 is a graph of fluorescence anisotropy data for DdrA binding to single-stranded DNA. Increasing concentrations of DdrA protein were incubated with 3′-fluorescently tagged DNA (1.0 nM) at 30° C. for 30 minutes. Samples were analyzed using the Beacons 2000 Fluorescence Polarization System and a curve was generated suing CURVE EXPERT 1.3 software. The K_{D,app} for each substrate is the concentration of DdrA when 50% of the DNA is bound as determined by the generated curve fit.

Binder | binding result [1] | Kd [2]
B1 | binds | 
GCGTGGGTAATTGTGCTTCAATGGACTGAC (ssDNA) [30 nt ssDNA] |  | 406 nM
GGCCTCGCGGTAGCTGAGCTCGGAGCGCACGATTCGCACTGCTGATGTTC (ssDNA) [50 nt ssDNA] |  | 118 nM
AAGCACAATTACCCACGC (ssDNA) [18 nt ssDNA] |  | 640 nM
